Experimental data published in patent US20040138156A1, “Therapeutic regulation of deoxyribonuclease-1-like-3 activity” (priority 2002, published 2004).
“Also recorded” adds a separate entry of the source. Where two headings read alike, the source gives them in different places.

B1: 89I: Murine D1L3 variant of NZ and MRL strains, isoleucine for threonine at residue 89 (protein)
chain: LRLCSFNVRSFGASKKENHEAMDIIVKIIKRCDLILLMEIKDSSNNICPMLMEKLNGNSRRSTIYNYVISSRLGRNTYKEQYAFVYKEKLVSVKTKYHYHDYQDGDTDVFSREPFVVWFHSPFTAVKDFVIVPLHTTPETSVKEIDELVDVYTDVRSQWKTENFIFMGDFNAGCSYVPKKAWQNIRLRTDPKFVWLIGDQEDTTVKKSTSCAYDRIVLCGQEIVNSVVPRSSGVFDFQKAYDLSEEEALDVSDHFPVEFKLQSSRAFTNNRKSVSLKKRKKGNRS
B2: N196K-D3: Murine D1L3 with conserved asparagine 196 changed to lysine; inactive nuclease (protein)
chain: LRLCSFNVRSFGASKKENHEAMDIIVKIIKRCDLILLMEIKDSSNNICPMLMEKLNGNSRRSTTYNYVISSRLGRNTYKEQYAFVYKEKLVSVKTKYHYHDYQDGDTDVFSREPFVVWFHSPFTAVKDFVIVPLHTTPETSVKEIDELVDVYTDVRSQWKTENFIFMGDFKAGCSYVPKKAWQNIRLRTDPKFVWLIGDQEDTTVKKSTSCAYDRIVLCGQEIVNSVVPRSSGVFDFQKAYDLSEEEALDVSDHFPVEFKLQSSRAFTNNRKSVSLKKRKKGNRS
B3: D3DCT: Murine D1L3 truncated by a stop codon at Ser-289, lacking the basic C-terminus (289-310) (protein)
chain: LRLCSFNVRSFGASKKENHEAMDIIVKIIKRCDLILLMEIKDSSNNICPMLMEKLNGNSRRSTTYNYVISSRLGRNTYKEQYAFVYKEKLVSVKTKYHYHDYQDGDTDVFSREPFVVWFHSPFTAVKDFVIVPLHTTPETSVKEIDELVDVYTDVRSQWKTENFIFMGDFNAGCSYVPKKAWQNIRLRTDPKFVWLIGDQEDTTVKKSTSCAYDRIVLCGQEIVNSVVPRSSGVFDFQKAYDLSEEEALDVSDHFPVEFKLQS
B4: Y261 C: Human DNASE1L3 with Tyr>Cys at aa 261, HA-tagged, expressed in HeLa (protein, UniProt Q13609 21-305, looked up, variant Y261C)
Deoxyribonuclease gamma: MRICSFNVRSFGESKQEDKNAMDVIVKVIKRCDIILVMEIKDSNNRICPILMEKLNRNSRRGITYNYVISSRLGRNTYKEQYAFLYKEKLVSVKRSYHYHDYQDGDADVFSREPFVVWFQSPHTAVKDFVIIPLHTTPETSVKEIDELVEVYTDVKHRWKAENFIFMGDFNAGCSYVPKKAWKNIRLRTDPRFVWLIGDQEDTTVKKSTNCAYDRIVLRGQEIVSSVVPKSNSVFDFQKACKLTEEEALDVSDHFPVEFKLQSSRAFTNSKKSVTLRKKTKSKRS
modifications: HA tag
notes: Human DNASE1L3 with Tyr>Cys at aa 261, HA-tagged, expressed in HeLa
B5: N191K: Human D1L3 with N191K mutation, expressed as GST fusion in E. coli (protein)
chain: MRICSFNVRSFGESKQEDKNAMDVIVKVIKRCDIILVMEIKDSNNRICPILMEKLNRNSRRGITYNYVISSRLGRNTYKEQYAFLYKEKLVSVKRSYHYHDYQDGDADVFSREPFVVWFQSPHTAVKDFVIIPLHTTPETSVKEIDELVEVYTDVKHRWKAENFIFMGDFKAGCSYVPKKAWKNIRLRTDPRFVWLIGDQEDTTVKKSTNCAYDRIVLRGQEIVSSVVPKSNSVFDFQKAYKLTEEEALDVSDHFPVEFKLQSSRAFTNSKKSVTLRKKTKSKRS

Tests used:
[1] = system: free DNA; assay: Radial diffusion assay (RDA) of nuclease activity against free DNA in conditioned media; format: biochemical; details: for RDA nuclease activity of conditioned media (in words): media conditioned by transfected HeLa cells
Protocol: (§1) Transfection Reagents and Resistance Assays. Lipofection of respective pcDNA3.1-D1 or -D3 ([…] purified with Promega Wizard Plus DNA system) was performed independently into 1-2 million HeLa cells, which produce a low background of secreted nuclease activity, when grown in DMEM with 10% FCS (LifeTech) in 6 well culture plates (Becton-Dickinson). […] Media of the transfected cells were conditioned for 36-48 hours and served as source of the respective enzymes. Nuclease activity in conditioned supernatant was measured by RDAs, zymograms and by testing activity against supercoiled pBluescript (Stratagene).
Nuclease Assays. Nuclease activity against “naked” or free DNA in CM was quantified by densitometry of RDAs. For assays of media by murine cells, RDAs were performed using conditioned media, after 36 hour incubation of equal numbers of target cell population. Each conditioned media was sampled in triplicate. RDAs for all four mice were performed on a single dish. For RDAs, 2-5 ul of conditioned supernatant was dotted on 100 mm dishes containing 2% agarose, 250 ug/ml DNA, 0.001% EtBr, 0.5% filtered milk, 10 mM Ca^+2/MgCl2; and 12.5 ug/ml kanamycin. Multiple observations were generated for every sample obtained. After 24 hours of 37° incubation, plates are photographed under UV transillumination; and scanned photos were analyzed with NIH image. For RDAs, the activity was quantified as the product of mean density and area (traced on image) of zones of clearing. For observations of serum/urine, 2-5 ul of serum were dotted on agarose plates.
(§2) Zymograms are in-gel renaturation assays performed by SDS-PAGE through a gel impregnated with 200 µg/ml DNA and ethidium bromide, eluting away SDS with repeated washes in 25 mM Tris-HCl pH 7.5, then incubating for 12-16 hours at 37° C. in 25 mM Tris-HCl pH 7.5 with 10 mM Ca^+2/Mg^+2 buffer. Activity is measured as dark “bands” of DNA digestion (Rosenthal et al., (1977) Anal. Biochem. 80, 76-90) and quantified using scanned images using NIH Image. Photographed RDA results were scanned 600 dpi Tiff images, and activity was measured as pixel area times density of traced zones of clearing (n=3 for each zone). Student's T-test was used to compare paired results. Nuclease activity ratios were obtained by comparing intra-plate results.

[2] = system: HeLa cells; assay: BT assay: liposomal N1-eGFP transfection of HeLa cells in DNASE-conditioned media, GFP immunoblot; format: cell-based; details: for BT activity / GFP expression or transfection efficiency in cells exposed to undiluted conditioned media: FuGENE-6, anti-GFP immunoblot
Protocol: In the main assay, an eukaryotic marker such as green fluorescent protein (GFP) expression plasmid complexed with a lipid reagent is transfected into HeLa cells incubated in control media, D1L3-conditioned media, or D1-conditioned media (FIG. 4). The assay is not limited to the use of GFP as a marker, but could use any of many expressed biomarkers encoded by nucleotides that can be assayed either immunochemistry, fluorescent detection, or enzymatic detectection, and these include but are not circumscribed to luciferase, chloramphenicol acetyl-transferase, antibiotic or chemical resistance genes, Beta-galactosidase, FLAG-, myc-hemaglutinnin-, or other epitope tagged molecules, as well as other markers of gene or nucleotide transduction. The endpoint of the assay is the detection of a synthesized protein, but could easily have been the detection of a transcribed gene product, since the assay ultimately measures the ability of D1L3 added the media/milieu overlaying the cells to block the ultimate association of an expressible plasmid with the transcriptional machinery.
as §1
To test for the ability of the nucleases to block transfection, the media in individual wells of naive HeLa cells were replaced with conditioned media, and cells transfected with […] of N1-eGFP plasmid (Clontech) using various transfection reagents (FIG. 11) and their respective protocols. GFP expression by immunoblot directly correlated with transfection efficiency in present experiments. Thus, transfection efficiency was compared by densitometric analysis of GFP immunoblots.
GFP expression was also examined by fluorescent microscopy using a FITC filter. For microscopy, cells were fixed for 5 minutes in 4% paraformaldehyde dissolved into 1% PBS.
Antibody Reagents and Immunoblotting. After 24-36 hours, cells transfected with N1-eGFP were lysed in SDS-buffer and immunoblotted for expression with anti-GFP at 1:5000 dilution (Clontech). To confirm nearly equal protein loading per lane, anti-β-actin monoclonal antibody at 1:7,000 dilution (Sigma) were prepared. For immunoblots, […] protein was eletrophoretically separated by 12% SDS-PAGE gel, followed by electrotransfer to Immobilon-P membranes (Millipore) for expression studies. Immunoblotting was performed using ECL detection (Amersham).
Transfection efficiency was compared, wherever possible, by pixel densitometry of the scanned images using Scion Image 4.02 software.

[3] = system: DNA; assay: DNA-SDS zymogram of nuclease activity; format: biochemical
Protocol: as §2
Prokaryotic Expression and GST Purification. Human D1L3-GST expression was performed by growing transformed BL21 Cells (Stratagene) at log phase were induced in 50 mg/ml IPTG for 5-7 hours at 32°. Bacterial pellets were lysed in 1×SDS-PAGE buffer and loaded on SDS-12% PAGE.

| Molecule | BT activity / GFP expression or transfection efficiency in cells exposed to undiluted conditioned media [2] | RDA nuclease activity of conditioned media (in words) [1] | nuclease activity by zymogram (in words) [3] | other results |
| --- | --- | --- | --- | --- |
| B1 | saturated BT activity | – | – | RDA-nuclease activity relative to the 89T enzyme ([1]; in vitro): about half; defect in BT activity ([2]; normalized to immunoblotted D3 protein levels, versus 89T, n=6): ~8 fold; GFP transfection in ten-fold diluted conditioned media ([2]; ten-fold (five and ten fold) dilution of conditioned media): liposomal gene transfection is possible; also recorded: shows transfection; zymogram nuclease activity relative to 89T-transfected cells ([3]; HeLa-expressed, normalized to immunoblotted D1L3 levels, n=16): 44%; decreased zymogram activity relative to protein levels ([3]; versus 89T, GST fusions and HeLa-expressed enzymes): ~50% |
| B2 | did not differ significantly from controls; also recorded: incapable of providing a barrier to transfection | Nearly no clearing; also recorded: negligible background RDA activity; also recorded: no nuclease activity above background | no nuclease activity above background | – |
| B3 | did not differ significantly from controls; also recorded: no significant decrease | greater RDA activity than D3 | – | RDA nuclease activity of conditioned media (in words) ([1]; listed as D3 pCT): slightly increased nuclease activity; BT activity / GFP expression or transfection efficiency in cells exposed to undiluted conditioned media ([2]; listed as D3 ρCT): unaffected |
| B4 | complete loss of function | complete loss of function | complete loss of function | RDA nuclease activity of conditioned media (in words) ([1]; listed as 261 C): only faint, if any, activity; BT activity / GFP expression or transfection efficiency in cells exposed to undiluted conditioned media ([2]; listed as 261 C): absence of barrier activity; nuclease activity by zymogram (in words) ([3]; listed as 261 C): no activity |
| B5 | – | – | no detectable nuclease activity | – |
